Source: patent publication WO2018183494A1 (dated 2018)

Target: T1, CD19 (UniProt P15391 20-556, limits assumed)
T1 sequence (looked up): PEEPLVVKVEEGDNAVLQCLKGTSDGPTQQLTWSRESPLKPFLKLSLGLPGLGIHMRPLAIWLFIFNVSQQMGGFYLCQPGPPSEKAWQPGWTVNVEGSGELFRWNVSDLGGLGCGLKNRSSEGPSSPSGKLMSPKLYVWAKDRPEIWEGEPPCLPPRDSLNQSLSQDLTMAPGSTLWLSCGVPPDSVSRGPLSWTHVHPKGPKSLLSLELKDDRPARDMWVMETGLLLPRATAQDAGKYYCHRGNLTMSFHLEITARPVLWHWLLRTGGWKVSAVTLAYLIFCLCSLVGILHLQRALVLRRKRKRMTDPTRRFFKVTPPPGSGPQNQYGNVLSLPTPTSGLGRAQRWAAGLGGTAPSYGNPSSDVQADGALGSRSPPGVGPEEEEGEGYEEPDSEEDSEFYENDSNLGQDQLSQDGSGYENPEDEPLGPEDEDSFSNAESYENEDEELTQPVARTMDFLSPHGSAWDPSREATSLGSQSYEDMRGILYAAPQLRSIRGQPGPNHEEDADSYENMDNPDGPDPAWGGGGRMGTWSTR
Test: cell-based or functional assay

B1: huB4-DGN462 (antibody, V domains shown)
VH: QVQLVQPGAEVVKPGASVKLSCKTSGYTFTSNWMHWVKQAPGQGLEWIGEIDPSDSYTNYNQNFQGKAKLTVDKSTSTAYMEVSSLRSDDTAVYYCARGSNPYYYAMDYWGQGTSVTVSS
VL: EIVLTQSPAIMSASPGERVTMTCSASSGVNYMHWYQQKPGTSPRRWIYDTSKLASGVPARFSGSGSGTDYSLTISSMEPEDAATYYCHQRGSYTFGGGTKLEIKR
median IC50 of cytotoxic activity (MTT assay, 72 h) in B cell lymphoma cell lines: 0.1 nM
median IC50 of cytotoxic activity (MTT assay, 72 h) in eight T cell-derived lymphomas with lower CD19 expression: 1.75 nM
